This test addresses Recombinant gp120JR-FL (MyBioSource) (HIV). The test can be described thus: modified gp120 ELISA: gp120JR-FL coated plate, NanoLuc luminescence read-out. (In general: An ELISA detects its analyte on a solid surface through an enzyme-linked reagent.)

Regarding “secreted PGT121-NanoLuc, purified (antibody)”, the sensitivity of the gp120 ELISA came out at 500 pg/mL.

Source of the values: patent US20240148901A1.
